How the values were obtained:
[1] = target: human purified airway mucins (purified from induced sputum of five asthmatic donors, pooled); test: plate binding assay: purified mucins coated, FLAG-ITLN-1 with dextran sulfate (150 pg/mL as printed) in the binding buffer
[2] = target: human purified airway mucins (purified from induced sputum of five asthmatic donors, pooled); test: plate binding assay: purified mucins coated, FLAG-ITLN-1 with heparin (150 pg/mL as printed) in the binding buffer

percent decrease of binding in the presence of dextran sulfate [1]: 74%
percent decrease of binding in the presence of heparin [2]: 51.9%
Substance: FLAG-tagged recombinant ITLN-1 (Sigma, SRP8047) (from UniProt Q8WWA0 19-298) (ligand)

— patent US20240239901A1
